To fix the notation:
B1: p6 peptide (peptide)
peptide: EEQAKTFLDKFNHEAEDLFYQSSGLGKGDFR
modifications: not checked
B2: p6(K)8,18(D)12,22 (peptide)
peptide: EEQAKTFKDKFDHEAEDKFYQDSGLGKGDFR
modifications: not checked
B3: p4C4, 8 (peptide)
peptide: EEQCKTFCDKFNHEAEDLFYQSS
modifications: not checked
B4: p4C9 (peptide)
peptide: EEQAKTFLCKFNHEAEDLFYQSS
modifications: not checked
B5: p4C18, 22 (peptide)
peptide: EEQAKTFLDKFNHEAEDCFYQCS
modifications: not checked
B6: p4C2 (peptide)
peptide: ECQAKTFLDKFNHEAEDLFYQSS
modifications: not checked
B7: p4C7 (peptide)
peptide: EEQAKTCLDKFNHEAEDLFYQSS
modifications: not checked
B8: p4C8 (peptide)
peptide: EEQAKTFCDKFNHEAEDLFYQSS
modifications: not checked
B9: p4C12 (peptide)
peptide: EEQAKTFLDKFCHEAEDLFYQSS
modifications: not checked
B10: p4C15, 19 (peptide)
peptide: EEQAKTFLDKFNHECEDLCYQSS
modifications: not checked
B11: p4C4, 8, 18, 22 (peptide)
peptide: EEQCKTFCDKFNHEAEDCFYQCS
modifications: not checked
B12: p4C11 (peptide)
peptide: EEQAKTFLDKCNHEAEDLFYQSS
modifications: not checked
B13: p4C13 (peptide)
peptide: EEQAKTFLDKFNCEAEDLFYQSS
modifications: not checked
B14: p4C3 (peptide)
peptide: EECAKTFLDKFNHEAEDLFYQSS
modifications: not checked
B15: p4C10 (peptide)
peptide: EEQAKTFLDCFNHEAEDLFYQSS
modifications: not checked
B16: p4C8, 12 (peptide)
peptide: EEQAKTFCDKFCHEAEDLFYQSS
modifications: not checked
B17: p4C11, 15 (peptide)
peptide: EEQAKTFLDKCNHECEDLFYQSS
modifications: not checked
B18: p4C5 (peptide)
peptide: EEQACTFLDKFNHEAEDLFYQSS
modifications: not checked
B19: p4C4 (peptide)
peptide: EEQCKTFLDKFNHEAEDLFYQSS
modifications: not checked
B20: p6-rigid (peptide)
peptide: EAAAKEEQAKTFLDKFNHEAEDLFYQSSGLGKGDFR
modifications: not checked
B21: p6-rigid-dis (peptide)
peptide: EAAAKEEQAKTFLDKFNHEAEDLFYQSCGLGKGDFRC
modifications: not checked
B22: p6-dis (peptide)
peptide: EEQAKTFLDKFNHEAEDLFYQSCGLGKGDFRC
modifications: not checked

Drawing on patent publication US20250250312A1, “BIFUNCTIONAL PEPTIDE WITH MU[…] VIRUS BINDING PROPERTIES” (priority 2022, published 2025), this text covers Kd for 22 molecules.

The first assay addresses receptor binding domain (RBD) of SARS-CoV-2 alpha variant (B.1.1.7) (SARS-CoV-2), P0DTC2.
B1 had a Kd of 320 nM.

A further assay addresses receptor binding domain (RBD) of SARS-CoV-2 delta variant (B.1.617.2) (SARS-CoV-2), P0DTC2.
In the case of B1, the equilibrium dissociation constant (Kd) was 190 nM.

The target of a further assay is T1, receptor binding domain (RBD) of SARS-CoV-2 wildtype (2019-nCoV) (SARS-CoV-2), P0DTC2.
For B2, the dissociation constant (Kd) came to 10 µM.

The next assay deals with T1, receptor binding domain (RBD) of …. The source holds these as a separate data set.
In turn, B3 came in with an equilibrium dissociation constant (Kd) of 59 nM.

For the molecule B4, the dissociation constant (Kd) came out at 3230 nM.

Take B5: the dissociation constant Kd was determined as 218 nM.

Molecule B6 had a Kd of 34 nM.

Regarding B7, the Kd was found to be 1940 nM.

Consider B8, for which the dissociation constant Kd was determined as 281 nM.

With B9, the equilibrium dissociation constant (Kd) stood at 2050 nM.

Regarding B10, the equilibrium dissociation constant (Kd) was 238 nM.

For the molecule B11, the Kd worked out at 400 nM.

Regarding B12, the Kd worked out at 12 nM.

With B13, the Kd stood at 28 nM.

On to B14, for which the Kd turned out to be 42 nM.

In turn, B15 yielded a Kd of 331 nM.

Consider B16, for which the dissociation constant Kd is 47 nM.

As to B17, the dissociation constant (Kd) stood at 68 nM.

Turning to B18, the dissociation constant (Kd) is 2140 nM.

Molecule B19 returned an equilibrium dissociation constant (Kd) of 1300 nM.

A further assay has the same target. This is another data set of the same source.
The molecule B20 yielded a dissociation constant (Kd) of 4.53 µM.

Turning to B21, the dissociation constant Kd was 5.13 µM.

B22 returned an equilibrium dissociation constant (Kd) of 2.6 µM.
